Columns and labels:
[1] = molecular target: histone H4, within the H3Kc9me3 mononucleosome (X. laevis, UniProt P62799 2-103); assay: cross-linking
[2] = molecular target: histone H2B, within the H3Kc9me3 mononucleosome (X. laevis, UniProt P02281 2-126); assay: cross-linking

binding result [1]: binds | binding result [2]: binds
B1: Swi6 (S. pombe HP1 protein) (natural protein)
chain: MKKGGVRSYRRSSTSKRSVIDDDSEPELPSMTKEAIASHKADSGSSDNEVESDHESKSSSKKLKENAKEEEGGEEEEEDEYVVEKVLKHRMARKGGGYEYLLKWEGYDDPSDNTWSSEADCSGCKQLIEAYWNEHGGRPEPSKRKRTARPKKPEAKEPSPKSRKTDEDKHDKDSNEKIEDVNEKTIKFADKSQEEFNENGPPSGQPNGHIESDNESKSPSQKESNESEDIQIAETPSNVTPKKKPSPEVPKLPDNRELTVKQVENYDSWEDLVSSIDTIERKDDGTLEIYLTWKNGAISHHPSTITNKKCPQKMLQFYESHLTFRENE

Reference: publication doi:10.1101/473132 (bioRxiv, 2018)
